In US20180112001A1 (Regeneron, published 2018):
Read-outs that look alike come from different tables or passages of the source.

T1: soluble monomeric human MUC16, truncated format encompassing the last five SEA domains of Mucin-16 (human)
T1 construct: also called hMUC16.mmh; MUC16 "nub"
T1 chain: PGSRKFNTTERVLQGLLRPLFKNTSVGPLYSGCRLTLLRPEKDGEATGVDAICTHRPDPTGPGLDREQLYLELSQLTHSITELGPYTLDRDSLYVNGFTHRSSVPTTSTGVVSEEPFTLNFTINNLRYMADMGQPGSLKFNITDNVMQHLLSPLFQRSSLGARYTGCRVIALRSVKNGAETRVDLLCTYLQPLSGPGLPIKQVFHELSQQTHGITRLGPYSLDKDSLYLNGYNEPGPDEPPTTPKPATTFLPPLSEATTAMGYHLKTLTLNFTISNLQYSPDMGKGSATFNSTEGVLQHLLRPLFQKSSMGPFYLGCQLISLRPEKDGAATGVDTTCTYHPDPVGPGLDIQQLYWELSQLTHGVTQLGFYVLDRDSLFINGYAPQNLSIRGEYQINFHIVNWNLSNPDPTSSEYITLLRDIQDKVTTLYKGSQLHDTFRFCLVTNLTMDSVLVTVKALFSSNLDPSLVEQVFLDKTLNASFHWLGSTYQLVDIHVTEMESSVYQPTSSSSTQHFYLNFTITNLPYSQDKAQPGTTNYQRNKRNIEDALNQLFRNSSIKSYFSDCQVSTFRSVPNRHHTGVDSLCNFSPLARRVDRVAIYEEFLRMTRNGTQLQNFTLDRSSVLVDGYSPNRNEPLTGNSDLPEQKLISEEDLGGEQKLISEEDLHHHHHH

T2: MUC16 "short" construct expressed on PC3 cells (PC3/MUC16 short) (human)
T2 construct: Transfected into PC3/ATCC cells; part of SEA12, SEA13-SEA16, C-terminal non-SEA region, transmembrane region and cytoplasmic domain; also called "nub" portion of MUC16 without the repeat regions
T2 chain: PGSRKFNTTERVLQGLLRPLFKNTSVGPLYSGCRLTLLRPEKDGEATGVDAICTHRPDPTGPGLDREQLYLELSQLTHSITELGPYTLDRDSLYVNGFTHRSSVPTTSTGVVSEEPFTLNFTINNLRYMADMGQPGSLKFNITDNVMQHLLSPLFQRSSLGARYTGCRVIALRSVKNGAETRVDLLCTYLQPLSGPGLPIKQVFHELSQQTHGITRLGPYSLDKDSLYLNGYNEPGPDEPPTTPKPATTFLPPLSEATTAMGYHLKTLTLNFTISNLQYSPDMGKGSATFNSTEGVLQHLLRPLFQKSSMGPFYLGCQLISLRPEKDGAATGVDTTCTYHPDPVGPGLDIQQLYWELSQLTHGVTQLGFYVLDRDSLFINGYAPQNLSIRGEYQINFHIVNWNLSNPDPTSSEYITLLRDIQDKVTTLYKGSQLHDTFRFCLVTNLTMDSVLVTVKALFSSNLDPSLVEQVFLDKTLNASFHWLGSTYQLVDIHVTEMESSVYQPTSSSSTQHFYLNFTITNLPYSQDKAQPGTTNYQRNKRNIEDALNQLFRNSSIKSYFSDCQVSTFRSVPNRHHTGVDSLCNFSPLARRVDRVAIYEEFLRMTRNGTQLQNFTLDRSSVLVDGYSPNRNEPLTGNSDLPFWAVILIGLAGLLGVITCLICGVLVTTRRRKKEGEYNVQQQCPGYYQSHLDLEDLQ

B1: BSMUC16/CD3-005 (bispecific antibody, V domains shown)
VH 1: QVQLVESGGGLVKPGGSLRLSCAASGFTFSNYYMSWVRQAPGKGLEWISYISGRGSTIFYADSVKGRITISRDNAKNSLFLQMNSLRAEDTAVYFCVKDRGGYSPYWGQGTLVTVSS
VH 2: EVQLVESGGGLVQPGRSLRLSCAASGFTFDDYSMHWVRQAPGKGLEWVSGISWNSGSIGYADSVKGRFTISRDNAKNSLYLQMNSLRAEDTALYYCAKYGSGYGKFYYYGMDVWGQGTTVTVSS
VL: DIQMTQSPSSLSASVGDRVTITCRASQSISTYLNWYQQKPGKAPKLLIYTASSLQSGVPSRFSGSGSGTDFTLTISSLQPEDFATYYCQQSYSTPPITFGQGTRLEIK
notes: Anti-MUC16 VH (H1H8767P), anti-CD3 VH (CD3-VH-G20), common light chain; also called REGN4019; anti-MUC16xCD3 bispecific antibody with CD3-VH-G20 arm
B2: CD3-VH-P (anti-CD3 antibody) (antibody, V domains shown)
VH: EVQLVESGGGLVQPGRSLRLSCVASGFTFDDYSMHWVRQAPGKGLEWVSGISWNSGSKDYADSVKGRFTISRDNAKNSLYLQMNSLRAEDTALYYCAKYGSGYGKFYHYGLDVWGQGTTVTVSS
VL: DIQMTQSPSSLSASVGDSVTITCRASQSINNYLNWYQQKPGKAPKLLIYTASSLLSGVPSRFSGSGSGTDFTLTISGLHPEDFATYFCQQSFSTPPITFGQGTRLDIK
B3: BSMUC16/CD3-001 (bispecific antibody, V domains shown)
VH 1: QVQLVESGGGLVKPGGSLRLSCAASGFTFSNYYMSWVRQAPGKGLEWISYISGRGSTIFYADSVKGRITISRDNAKNSLFLQMNSLRAEDTAVYFCVKDRGGYSPYWGQGTLVTVSS
VH 2: EVQLVESGGGLVQPGRSLRLSCAASGFTFDDYSMHWVRQAPGKGLEWVSGISWNSGSKGYADSVKGRFTISRDNAKNSLYLQMNSLRAEDTALYYCAKYGSGYGKFYHYGLDVWGQGTTVTVSS
VL: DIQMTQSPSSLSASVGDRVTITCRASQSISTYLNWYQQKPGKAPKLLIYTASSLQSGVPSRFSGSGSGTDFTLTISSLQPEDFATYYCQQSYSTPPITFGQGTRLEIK
notes: Anti-MUC16 VH (H1H8767P), anti-CD3 VH (CD3-VH-G), common light chain; also called anti-MUC16xCD3 bispecific antibody with CD3-VH-G arm
B4: H1H8808P (antibody, human IgG1, V domains shown)
VH: QVQLVESGGGVVQPGRSLRLSCVASGFTFSNYGIHWVRQAPGKGLEWVAVISDDGSFKFYADSVKGRFTISRDNSKNTLYLQMNSLRVEDSAVYHCAKWQHNWNDGGFDYWGQGTLVTVSS
VL: EIVLTQSPDTLSLSPGERATLSCRASQSLSSNYLAWYRQKPGQAPRLLIYGISSRATGIPDRFSGSGSGTDFTLTISRLEPEDFAVYYCQQYGSSPWTFGQGTKVEIK
notes: Human IgG1 (H1H)
B5: H2M7138N (antibody, mouse IgG2, V domains shown)
VH: QVQLVQSGAEVKKPGASVKVSCKASGYTFTSSDINWVRQATGQGLEWVGWMNPNYGYTGSARKFQDRVTMTRNTSLSTAYLELHSLRSEDTAVYYCARVTYCSSVTSCFRPFTYWGQGTLVTVSA
VL: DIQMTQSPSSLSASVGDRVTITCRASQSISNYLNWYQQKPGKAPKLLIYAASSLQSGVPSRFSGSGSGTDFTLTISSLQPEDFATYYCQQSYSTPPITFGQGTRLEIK
notes: Mouse IgG2 constant region (H2M); also called H2aM7138N

Legend:
[1] = target: T3, human MUC16 (mucin 16), endogenously expressed on cells (human); experiment: FACS binding titration on OVCAR3-Luc (MUC16+) cells
T3 construct: Endogenous MUC16 on OVCAR-3 / OVCAR3-Luc / PEO-1 / HPAC cells; also called hMUC16

[2] = target: T3, human MUC16 (mucin 16), endogenously …; experiment: cell-based or functional assay
mouse CD3 = mouse CD3 (mouse, UniProt P22646 22-108); experiment: not described (statement in the pharmacokinetic example)
[3] = target: T3, human MUC16 (mucin 16), endogenously …; experiment: FACS binding titration on PEO-1 (MUC16+) cells
[4] = target: T1, soluble monomeric human MUC16, …; experiment: SPR Biacore, antibody captured, soluble monomeric hMUC16.mmh injected, 25C
[5] = target: T4, cynomolgus monkey CD3 on cynomolgus T cells (cynomolgus monkey, UniProt Q95LI5 22-198); experiment: FACS binding titration on cynomolgus T cells
T4 construct: whole, on cells; also called cynomolgus CD3

[6] = target: T3, human MUC16 (mucin 16), endogenously …; experiment: cell-based or functional assay; remark: listed apart in the source
[7] = target: T5, human CD3 on cells (Jurkat cells, human T cells) (human, UniProt P07766 23-207; P04234 22-171); experiment: FACS titration of Jurkat cells
T5 construct: on cells CD3 is part of the TCR complex; also called hCD3

[8] = target: T4, cynomolgus monkey CD3 on cynomolgus T …; experiment: FACS titration of cynomolgus T cells
[9] = target: T5, human CD3 on cells (Jurkat cells, human …); experiment: cell-based or functional assay
[10] = target: T5, human CD3 on cells (Jurkat cells, human …); experiment: FACS binding titration on Jurkat cells
[11] = target: T3, human MUC16 (mucin 16), endogenously …; experiment: cell-based or functional assay; remark: listed apart in the source
[12] = target: T5, human CD3 on cells (Jurkat cells, human …); experiment: cell-based or functional assay; remark: listed apart in the source
[13] = target: T5, human CD3 on cells (Jurkat cells, human …); experiment: cell-based or functional assay; remark: listed apart in the source
[14] = target: T3, human MUC16 (mucin 16), endogenously …; experiment: FACS binding titration on OVCAR3 (MUC16+) cells
[15] = target: T5, human CD3 on cells (Jurkat cells, human …); experiment: FACS binding titration on Jurkat cells; remark: listed apart in the source
[16] = target: T3, human MUC16 (mucin 16), endogenously …; experiment: MSD electrochemiluminescence cell binding; RLU ratio OVCAR-3/SK-OV-3; Ab 16.7 nM; NS = Non-Specific, ratio <2.5-fold
[17] = target: T3, human MUC16 (mucin 16), endogenously …; experiment: MSD electrochemiluminescence cell binding; RLU ratio OVCAR-3/SK-OV-3; Ab 1.9 nM
[18] = target: T1, soluble monomeric human MUC16, …; experiment: SPR Biacore, antibody captured, soluble monomeric hMUC16.mmh injected, 25C
[19] = target: T2, MUC16 "short" construct expressed on …; experiment: IHC on FFPE cell pellets, PC3/MUC16 Short cells
[20] = target: T1, soluble monomeric human MUC16, …; experiment: SPR Biacore, antibody captured, soluble monomeric hMUC16.mmh injected, 25C
[21] = target: T3, human MUC16 (mucin 16), endogenously …; experiment: MSD electrochemiluminescence cell binding; RLU ratio OVCAR-3/SK-OV-3; Ab 16.7 nM

T4 sequence (Q95LI5 22-198): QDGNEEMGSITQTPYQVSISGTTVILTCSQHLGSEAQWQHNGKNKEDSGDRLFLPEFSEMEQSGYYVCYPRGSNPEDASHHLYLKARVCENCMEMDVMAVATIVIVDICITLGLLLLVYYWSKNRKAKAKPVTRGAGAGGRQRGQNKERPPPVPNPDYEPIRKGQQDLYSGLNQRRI
T5 sequence (P07766 23-207 limits assumed, chain 1 of 2): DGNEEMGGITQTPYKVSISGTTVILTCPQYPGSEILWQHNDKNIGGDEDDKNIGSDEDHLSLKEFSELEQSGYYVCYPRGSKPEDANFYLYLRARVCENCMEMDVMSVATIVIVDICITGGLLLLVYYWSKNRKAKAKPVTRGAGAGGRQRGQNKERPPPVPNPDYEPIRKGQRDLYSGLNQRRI
T5 sequence (P04234 22-171 limits assumed, chain 2 of 2): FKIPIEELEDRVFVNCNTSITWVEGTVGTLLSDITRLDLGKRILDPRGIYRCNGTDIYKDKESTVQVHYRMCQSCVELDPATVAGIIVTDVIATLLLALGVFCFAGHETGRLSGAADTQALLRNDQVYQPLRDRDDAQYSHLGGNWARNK
Chain of mouse CD3 (P22646 22-108): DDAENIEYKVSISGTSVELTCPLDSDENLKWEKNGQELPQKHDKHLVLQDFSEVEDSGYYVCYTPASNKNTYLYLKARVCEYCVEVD

| Binder | EC50 [1] | PEO-1 cell depletion EC50 [2] | binding result (mouse CD3) | EC50 [3] | Kd [4] | koff [4] | kon [4] | t ½ [4] | EC50 [5] | OVCAR3-Luc cell depletion EC50 [6] | Ratio: anti-MUC16 Binding OVCAR-3/SK-OV-3 [17] | further results |
| --- | --- | --- | --- | --- | --- | --- | --- | --- | --- | --- | --- | --- |
| B1 | 1.47 nM | 0.0774 nM | no binding | 2.63 nM | 6 nM | 0.000564 s⁻¹ | 94100 M⁻¹ s⁻¹ | 21 min | 1170 nM | 0.0516 nM | – | – |
| B2 | – | – | – | – | – | – | – | – | – | – | – | EC50 [7]: 1 to 40 nM; EC50 [8]: 1 to 40 nM |
| B3 | 1.32 nM | 0.0256 nM | no binding | 3.02 nM | 6.18 nM | 0.000586 s⁻¹ | 94800 M⁻¹ s⁻¹ | 20 min | 15.6 nM | 0.0154 nM | – | T cells activation (CD25 upregulation) EC50 [9]: 0.039 nM; T cells activation (CD69 upregulation) EC50 [9]: 0.00834 nM; EC50 [10]: 3.21 nM; OVCAR3 cell depletion EC50 [11]: 0.0224 nM; T cell activation (CD69 upregulation) EC50 [12]: 0.00588 nM; T cells activation (CD25 upregulation) EC50 [13]: 0.0306 nM; T cells activation (CD69 upregulation) EC50 [13]: 0.00298 nM; EC50 [14]: 1.2 nM; EC50 [15]: 6.44 nM |
| B4 | – | – | – | – | – | – | – | – | – | – | 4 ratio | Ratio: anti-MUC16 Binding OVCAR-3/SK-OV-3 [16]: < 2.5 ratio; Kd [18]: 52.4 nM; koff [18]: 0.000216 s⁻¹; kon [18]: 4120 M⁻¹ s⁻¹; t1/2 [18]: 54 min |
| B5 | – | – | – | – | – | – | – | – | – | – | 82 ratio | binding result [19]: binds; Kd [20]: 1.25 nM; koff [20]: 9.25e-05 s⁻¹; kon [20]: 74100 M⁻¹ s⁻¹; t ½ [20]: 125 min; Ratio: anti-MUC16 Binding OVCAR-3/SK-OV-3 [21]: 50 ratio |
